Reference: patent US20130266574A1 (Regeneron, published 2013)

T1: N-terminally biotinylated hANGPTL4 peptide (R34-L66 of SEQ ID NO:476) (human, N-terminal biotin)
T1 construct: also called hANGPTL4-Nterm biotin
T1 peptide: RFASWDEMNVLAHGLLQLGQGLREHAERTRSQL

T2: N-terminally biotinylated hANGPTL3 peptide (R36-I68 of SEQ ID NO:485) (human, N-terminal biotin)
T2 construct: also called hANGPTL3-Nterm biotin
T2 peptide: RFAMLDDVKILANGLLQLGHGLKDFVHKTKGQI

T3: hANGPTL4 peptide (R34-L66 of SEQ ID NO:476) (human)
T3 peptide: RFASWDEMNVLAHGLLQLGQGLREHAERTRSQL

T4: hANGPTL3 peptide (R36-I68 of SEQ ID NO:485) (human)
T4 peptide: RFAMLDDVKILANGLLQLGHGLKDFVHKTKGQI

T5: cynomolgus monkey ANGPTL4 N-terminal region (amino acid residues 1-130 of SEQ ID NO:490) with a C-terminal … (cynomolgus monkey (Macaca fascicularis), UniProt Q9BY76 26-130 (human entry))
T5 construct: also called MfANGPTL4(1-130)-His
T5 chain: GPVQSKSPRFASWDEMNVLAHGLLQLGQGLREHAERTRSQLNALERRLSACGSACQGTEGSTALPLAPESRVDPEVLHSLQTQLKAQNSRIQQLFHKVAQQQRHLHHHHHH

T6: amino acid residues 26-148 of human ANGPTL4 fused in-line to mouse IgG2a (hANGPTL4-mFc) (human)
T6 chain: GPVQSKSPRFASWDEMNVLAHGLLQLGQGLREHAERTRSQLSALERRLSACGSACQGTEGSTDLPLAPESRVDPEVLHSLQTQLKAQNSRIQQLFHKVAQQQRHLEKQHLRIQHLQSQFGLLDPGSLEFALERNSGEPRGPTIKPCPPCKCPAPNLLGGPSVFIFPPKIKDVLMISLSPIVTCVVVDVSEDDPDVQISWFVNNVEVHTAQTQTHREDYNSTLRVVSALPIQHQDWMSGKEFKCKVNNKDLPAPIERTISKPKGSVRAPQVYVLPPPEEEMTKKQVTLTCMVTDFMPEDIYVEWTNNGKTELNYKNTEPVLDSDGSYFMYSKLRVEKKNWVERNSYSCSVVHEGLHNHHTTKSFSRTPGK

T7: full-length hANGPTL4 (amino acid residues 26-406 of SEQ ID NO:476) with a C-terminal hexa-histidine tag (human, UniProt Q9BY76 26-406)
T7 sequence: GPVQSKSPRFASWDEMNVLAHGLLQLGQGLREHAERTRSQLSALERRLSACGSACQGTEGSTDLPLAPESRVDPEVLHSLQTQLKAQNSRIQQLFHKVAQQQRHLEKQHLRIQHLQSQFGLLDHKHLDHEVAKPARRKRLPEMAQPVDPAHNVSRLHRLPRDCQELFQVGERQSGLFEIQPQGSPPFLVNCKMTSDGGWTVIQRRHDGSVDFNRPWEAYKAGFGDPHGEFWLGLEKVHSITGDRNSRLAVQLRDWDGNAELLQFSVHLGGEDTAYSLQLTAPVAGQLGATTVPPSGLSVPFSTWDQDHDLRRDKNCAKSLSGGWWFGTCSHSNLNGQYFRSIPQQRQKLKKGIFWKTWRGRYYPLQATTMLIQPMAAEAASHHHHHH


Key:
[1] = target: T1, N-terminally biotinylated hANGPTL4 …; assay: SPR (Biacore), antibody captured on anti-human Fc, peptide injected
Method: (§1) Further, the binding affinities of H1H268P and H1H284P for various ANGPTL3 and ANGPTL4 peptides were also determined by BIACORE™ system. Briefly, H1H268P (1348±11 RU) and H1H284P (868±13 RU) were captured over anti-human Fc surface and various concentrations (62.5 nM-500 nM) of the hANGPTL3 and hANGPTL4 peptides were injected. […] Kinetic analysis was performed to measure kₐ and kd, and KD values and half-life of antigen/antibody complex dissociation were calculated. NB: No binding under the experimental conditions described.

[2] = target: T2, N-terminally biotinylated hANGPTL3 …; assay: as above
Method: as §1

[3] = target: T3, hANGPTL4 peptide (R34-L66 of SEQ ID …); assay: as above
Method: as §1

[4] = target: T4, hANGPTL3 peptide (R36-I68 of SEQ ID …); assay: as above
Method: as §1

[5] = target: T5, cynomolgus monkey ANGPTL4 N-terminal …; assay: SPR (Biacore), 25° C., pH 7.2, antigen amino-coupled 1,028 RU
Method: (§2) Kinetic analysis was performed to measure kₐ and kd, and KD values and half-life of antigen/antibody complex dissociation were calculated. The results are shown in Table 4 (H1H268P) and Table 5 (H1H284P).

[6] = target: T6, amino acid residues 26-148 of human …; assay: cell-based or functional assay
[7] = target: T7, full-length hANGPTL4 (amino acid …); assay: cell-based or functional assay
[8] = target: T6, amino acid residues 26-148 of human …; assay: cell-based or functional assay
[9] = target: T7, full-length hANGPTL4 (amino acid …); assay: cell-based or functional assay; remark: listed apart in the source
[10] = target: T7, full-length hANGPTL4 (amino acid …); assay: SPR (Biacore), 25° C., pH 5.75, antigen amino-coupled 450 RU
Method: as §2

[11] = target: T5, cynomolgus monkey ANGPTL4 N-terminal …; assay: SPR (Biacore), 25° C., pH 5.75, antigen amino-coupled 1,028 RU
Method: as §2

[12] = target: T6, amino acid residues 26-148 of human …; assay: SPR (Biacore T100), hANGPTL4-mFc captured by anti-mouse IgG, antibody injected, 25° C.
Method: Antigen-antibody binding and dissociation were monitored in real time at 25° C. and 37° C. Kinetic analysis was performed to calculate KD and half-life of antigen/antibody complex dissociation.

binding result [2]	binding result [4]	Kd [5]	koff [5]	kon [5]	t1/2 [5]	IC50, antibody concentration required for 50% maximum inhibition of 2 nM hANGPTL4-mFc (LPL lipase test) [6]	IC50, antibody concentration required for 50% maximum inhibition of 10 nM hANGPTL4-His (LPL lipase test) [7]	% Inhibition of hANGPTL4 Activity (LPL lipase test), hANGPTL4-mFc (2 nM) [8]	% Inhibition of hANGPTL4 Activity (LPL lipase test), hANGPTL4-His (10 nM) [9]	Kd [10]	koff [10]	kon [10]	t1/2 [10]	t1/2 [11]	Kd [12]	t1/2 [12]	Binder	further results
no binding (tested: 62.5 nM-500 nM)	no binding (tested: 62.5 nM-500 nM)	0.125 nM	5.83e-05 s⁻¹	467000 M⁻¹ s⁻¹	3.3 h	0.8 nM	0.5 nM	82%	90%	0.141 nM	0.000272 s⁻¹	1.93e+06 M⁻¹ s⁻¹	0.7 h	2.28 h	0.168 nM	2.7 h	H1H284P (antibody, V domains shown, also called entire H1H284 mAb; Full mAb) VH: QVQLVESGGGVVQPGRSLRLSCAASGFTFSSYGMHWVRQAPGKGLEWMAVISFDGGNKNNADSVKGRFTISRDNSKNTLYLQMNSLRAEDTAVYYCAKEGDRSGHPYFYYYGLDVWGQGTTVTVS VL: DIQLTQSPSFLSASVGDRVTITCWASQGISSYLAWYQQKPGKAPKLLIYAASTLQSGVPSRFSGSGSETEFTLTISSLQPEDFATYYCQQLHSYPLTFGGGTKVEIK	binding result [1]: no binding (tested: 500 nM); binding result [3]: no binding (tested: 500 nM); koff [11]: 8.42e-05 s⁻¹; kon [11]: 1.55e+06 M⁻¹ s⁻¹
no binding (tested: 62.5 nM-500 nM)	no binding (tested: 62.5 nM-500 nM)	0.122 nM	4.76e-05 s⁻¹	392000 M⁻¹ s⁻¹	4.05 h	1.2 nM	0.2 nM	76%	80%	0.483 nM	0.000446 s⁻¹	923000 M⁻¹ s⁻¹	0.433 h	2.33 h	0.275 nM	1.33 h	H1H268P (antibody, V domains shown, also called entire H1H268 mAb; Full mAb) VH: QVQLQESGAGLLKPSETLSLTCTVYGGSFSIHHWTWIRHPPGKGLEWIGEINHRGSTNYNPSLKSRVTISIDTSKNQFSLKLSAVTAADTAVYYCARGLRFLDWLSSYFDYWGQGTLVTVSS VL: DIQMTQSPSSLSASVGDRVTITCRASQGISDYLAWYQQKPGKVPNLLIYAASALQSGVPSRFSGSGSGTDFTLTISSLQPEDVATYYCQNYNTAPLTFGGGTKVEIK	Kd [1]: 64.8 nM; koff [1]: 0.000294 s⁻¹; kon [1]: 4530 M⁻¹ s⁻¹; t1/2 [1]: 0.65 h; Kd [3]: 56.3 nM; koff [3]: 0.000365 s⁻¹; kon [3]: 6490 M⁻¹ s⁻¹; t1/2 [3]: 0.533 h
